Assay [1] addresses SARS-CoV-2 wild-type Wuhan-Hu-1 spike protein (2019-nCoV spike protein) (SARS-CoV-2 (Wuhan-Hu-1)) (UniProt P0DTC2). In words: SPR. Background: SPR reads the build-up and loss of mass on a sensor chip optically.
Assay [2] addresses Wuhan-Hu-1 SARS-CoV-2 receptor binding domain (2019-nCoV spike RBD) (SARS-CoV-2 (Wuhan-Hu-1)) (UniProt P0DTC2). In words: SPR.

The source of these data is article PMC9468479.

By Kd is commonly meant the equilibrium constant for the complex coming apart. Higher therefore signals a looser complex. As to “Urtica dioica agglutinin (UDA) (natural protein)”, the Kd in assay [1] amounted to 7 nM; in assay [2] it was 22 nM.
